{
  "source": "patent US7109170B2",
  "about": "“Region of factor IXa protease domain that interacts with factor VIIIa and methods therefor” (Saint Louis University, priority 1999, dated 2006)",
  "assay_type_in_all_cases": "biochemical",
  "key": {"[1]": {"system": "Factor IX deficient plasma", "assay": "coagulant activity of XIa-activated IXa proteins"}, "factor X [2]": {"target": "T1, factor X (Homo sapiens, UniProt P00742)", "T1 sequence (P00742 183-488 limits assumed)": "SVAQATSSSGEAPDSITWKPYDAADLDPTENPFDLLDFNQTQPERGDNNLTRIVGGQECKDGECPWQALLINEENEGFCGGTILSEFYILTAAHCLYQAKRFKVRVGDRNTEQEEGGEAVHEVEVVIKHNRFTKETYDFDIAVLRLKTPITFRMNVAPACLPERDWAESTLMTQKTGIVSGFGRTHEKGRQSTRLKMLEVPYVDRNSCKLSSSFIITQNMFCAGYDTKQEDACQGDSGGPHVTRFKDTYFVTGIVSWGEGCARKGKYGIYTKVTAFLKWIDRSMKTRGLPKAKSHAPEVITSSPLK", "T1 sequence (P00742 41-179 limits assumed)": "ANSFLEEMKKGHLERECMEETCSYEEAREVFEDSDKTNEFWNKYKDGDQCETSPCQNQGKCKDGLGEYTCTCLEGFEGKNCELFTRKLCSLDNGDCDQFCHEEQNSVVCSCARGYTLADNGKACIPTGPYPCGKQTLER", "T1 sequence (P00451 20-759 partner limits assumed)": "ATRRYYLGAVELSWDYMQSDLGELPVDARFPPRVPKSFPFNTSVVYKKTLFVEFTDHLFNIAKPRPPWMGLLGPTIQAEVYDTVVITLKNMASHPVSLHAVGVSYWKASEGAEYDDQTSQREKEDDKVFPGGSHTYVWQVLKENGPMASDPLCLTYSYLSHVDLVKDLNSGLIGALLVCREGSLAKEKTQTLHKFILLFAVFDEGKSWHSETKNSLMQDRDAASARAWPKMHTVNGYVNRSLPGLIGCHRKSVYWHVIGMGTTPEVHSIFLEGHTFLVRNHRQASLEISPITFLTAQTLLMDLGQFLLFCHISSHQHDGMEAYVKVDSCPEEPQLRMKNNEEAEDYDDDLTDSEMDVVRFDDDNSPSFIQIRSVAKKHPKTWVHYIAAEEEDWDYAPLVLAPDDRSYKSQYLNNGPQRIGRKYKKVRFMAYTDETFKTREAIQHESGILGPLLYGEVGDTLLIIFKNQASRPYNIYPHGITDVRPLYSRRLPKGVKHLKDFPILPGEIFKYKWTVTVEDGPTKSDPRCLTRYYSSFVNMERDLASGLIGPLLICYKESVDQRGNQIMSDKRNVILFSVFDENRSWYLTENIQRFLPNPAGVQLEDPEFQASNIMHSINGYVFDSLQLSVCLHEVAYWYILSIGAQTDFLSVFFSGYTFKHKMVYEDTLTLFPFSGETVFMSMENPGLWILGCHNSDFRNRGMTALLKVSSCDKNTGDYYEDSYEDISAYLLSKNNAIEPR", "T1 sequence (P00451 1668-2351 partner limits assumed)": "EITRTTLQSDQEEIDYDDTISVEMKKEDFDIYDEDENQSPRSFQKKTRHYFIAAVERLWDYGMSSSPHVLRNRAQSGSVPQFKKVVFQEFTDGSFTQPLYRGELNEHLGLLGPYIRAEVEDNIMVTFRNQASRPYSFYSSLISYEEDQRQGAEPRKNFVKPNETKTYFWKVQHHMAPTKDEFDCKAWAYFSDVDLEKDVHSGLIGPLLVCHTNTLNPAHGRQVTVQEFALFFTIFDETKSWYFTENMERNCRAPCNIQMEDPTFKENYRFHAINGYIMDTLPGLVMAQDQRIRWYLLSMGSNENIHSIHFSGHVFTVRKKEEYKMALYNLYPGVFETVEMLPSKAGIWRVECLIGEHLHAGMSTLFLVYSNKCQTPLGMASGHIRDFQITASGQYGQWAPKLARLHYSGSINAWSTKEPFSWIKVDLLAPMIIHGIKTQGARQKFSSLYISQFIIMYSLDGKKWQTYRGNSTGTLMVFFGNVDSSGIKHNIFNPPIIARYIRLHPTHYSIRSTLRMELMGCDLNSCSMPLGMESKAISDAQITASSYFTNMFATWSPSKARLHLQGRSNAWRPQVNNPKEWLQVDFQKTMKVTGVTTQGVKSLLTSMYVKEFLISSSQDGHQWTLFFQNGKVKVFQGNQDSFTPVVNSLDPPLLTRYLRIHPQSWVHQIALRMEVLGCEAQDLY", "assay": "factor X activation in complete intrinsic Tenase system (IXa, Ca2+, phospholipid, VIIIa)", "parameters": "Normal human plasma factor IX (IXNP) and factor X were isolated as described in Bajaj and Birktoft; from tissue; host or cells: human plasma (factor X); factor VIII obtained from Dr. Leon Hoyer, American Red Cross", "details": "70 pM VIIIa, 0.5 nM IXa, 15 nM X, phospholipid present", "protocol": "(§1) The ability of each activated mutant to activate factor X in the presence and absence of phospholipid and factor VIIIa was determined as follows. The activation was carried out at 37° C. in a 50 μl reaction volume, in TBS/BSA pH 7.4, for various time periods. At the end of the incubation time period, each reaction mixture received 1 μl of 0.5 M EDTA to stop further generation of factor Xa. A 40 μL aliquot was then added to 0.1 ml quartz cuvette containing S-2222 in 75 μL of TBS/BSA, pH 7.4. The final concentration of S-2222 was 100 μM. The p-nitroaniline release was measured continuously (ΔA405/min) for up to 20 min (Sabharwal et al., 1995 supra; Sabharwal et al., 1997, supra). Factor Xa generated was calculated from a standard curve constructed using factor Xa prepared from insolubilized Russell's viper venom.\n(§2) Factor X activation measurements were made under four experimental regimes. In one, Ca^2+ and phospholipid were present. In this system activation was carried out for 5–15 minutes and the concentration of each IXa protein was 20 nM, phospholipid was 25 μM, and factor X was 100 nM. In the second regime, Ca^2+, phospholipid and factor VIIIa were present. […] In the third regime, only Ca^2+ was present. Here, activation was carried out for 2–20 min and concentration of each IXa protein was 400 nM and factor X was 1 μM. Finally, in the fourth regime, Ca^2+ and VIIIa were present. Here, activation was carried out for 15–120 sec and the concentration of each IXa protein was 2 μM, VIIIa was 14 nM, and factor X was 400 nM.\n(§3) In all of the above factor X activation experiments, the incubation times chosen were those in which the factor Xa generated was always less than 10 nM. This precautionary measure was taken to prevent activation of factor X by the generated factor Xa (see, e.g., Link. and Castellino, 1982, Arch Biochem. Biophys. 215, 215–221). Further, in those incubation mixtures which contained […], control experiments were also performed in which factor VIIIa was omitted. […] In the presence of factor VIIIa, 10 μM phospholipid was used based upon previous observations (Mathur et al., 1997, supra; van Dieijen et al., 1981, J. Biol. Chem. 256, 3433–3442). The concentrations of factor X selected for each set of reaction conditions are those which are below or at the Km values (van Dieijen et al., supra; Fay and Koshibu, 1998, J Biol. Chem. 273, 19049–19054). In this region of the Michaelis-Menton curve, the rate of formation of factor Xa is proportional to the substrate factor X and therefore to the affinity of the factor IXa enzyme for factor X.\nNext, the activation of factor X in a complete intrinsic Tenase system (IXa, Ca^2+, phospholipid, VIIIa) was studied."}, "factor X [3]": {"target": "T1, factor X", "assay": "factor X activation by IXa proteins, Ca2+ and VIIIa, no phospholipid", "parameters": "Normal human plasma factor IX (IXNP) and factor X were isolated as described in Bajaj and Birktoft; from tissue; host or cells: human plasma (factor X); factor VIII obtained from Dr. Leon Hoyer, American Red Cross", "details": "14 nM VIIIa, 400 nM factor X", "protocol": "as §1, §2, §3"}},
  "data": [
    {"substance": "IXaV331A: activated factor IX mutant V331A", "values": [
      {"measurement": "coagulant activity as compared to IXaNP", "setting": "[1]", "value": "~6", "unit": "%"},
      {"measurement": "X-activation rate, PL-plus system", "setting": "factor X [2]", "value": "0.55 ± 0.04", "unit": "nM/min"},
      {"measurement": "X-activation rate, PL-minus system", "setting": "factor X [3]", "value": "0.54 ± 0.02", "unit": "nM/min"}
    ]}
  ]
}
